From the RNAGym collection of RNA variant scans (doi:10.1073/pnas.2313332121)

B1: TPR t1 (parent)
chain: GACCAAUCUGCCCUCAGAGCUCGAGAACAUCUUCGGAUGCAGAGGAGGCAGGCUUCGGUGGCGCGAUAGCGCCAACGUCCUCAACCUCCAAUGCAUCCCACCACAUGAUGAUGCCUGAAGAGCCUUGGUUUUUUG

Variants of: B1
Assay: polymerase ribozyme fitness, log enrichment relative to wild type (log ratio); higher = more active; in vitro selection for triplet polymerase activity
Method in brief: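 For each subunit of a heterodimeric triplet polymerase ribozyme, a mutant library was built by PCR and transcribed, then taken through a single in vitro selection round in triplicate. Selection involved annealing to a biotinylated primer, the partner subunit and triplets, incubation frozen at −7 °C, gel excision of extended constructs, capture on streptavidin beads and RT-PCR. Genotypes were retained after Illumina sequencing of inputs and outputs only with ≥10 input reads and ≥1 read in each output. Fitness is defined as the logarithm of a genotype's enrichment relative to wild-type enrichment, using inverse-variance-weighted averages across replicates, with the logarithm taken to base 2.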

Variant | polymerase ribozyme fitness (log ratio)
U7G A16C U55G C56U A84G | -4.09
U7G A18G C62U G120C U125A | -2.15
U7G A18U C101U | -1.59
U7G A27U G48A U112A | -1.8
U7G A41C C56U | -0.335
U7G A41G C53A G61U C79U A90U A111C | -3.04
U7G A41U | -0.368
U7G A43G G47U G61A U96A | -2.6
U7G A43U G47C G58U U59G C82U G110A | -5.4
U7G A43U G48U G60C C115A U126A | -3.03
U7G A46C A68C C70U C97U G120U G127U | -5.43
U7G A46C C97U G120U G127U | 0.436
U7G A46G C124A | 1.74
U7G A46U C82U C102A U112A | -0.759
U7G A50G U54C G128U | -1.5
U7G A66C G71U | -1.24
U7G A74C G93U G113A | -1.35
U7G A105C G120U | -0.828
U7G C8A | 0.287
U7G C8A C56A C124U U129A | -0.245
U7G C8A C86U | 0.828
U7G C8U C53A U59C C80U | -4.87
U7G C11G C124U | 1.49
U7G C11U A18C G45U C53A | -2.72

Variant | polymerase ribozyme fitness (log ratio)
U7G C11U C49A C56A G107U C114U | -4.37
U7G C12G A37G | 0.709
U7G C12U C15A C22G C62U C80U C86U U96C G113C | -6.05
U7G C13A A37C G52A G69C | -1.85
U7G C13U A26G G48A C49U G52A A75C | -3.14
U7G C13U A84U U96A A121C | 0.875
U7G C15A G58C | -0.977
U7G C15A U38C C40G A41U G48U G69A C89A U96G C98U A111G | -7.66
U7G C15G C49G U112G | -1.33
U7G C15U C20U | -1.35
U7G C20U G60C U133G | -1.91
U7G C22U C101A C114A A118U A119U | -5.29
U7G C22U G42A G47C G60C U87G U92C | -7.02
U7G C31U C62U A100C U106A G113A | -4.43
U7G C40U A41C G71U G113A | -2.26
U7G C40U U54C C73A U106A | 1.14
U7G C49A C123U | 0.939
U7G C49U C80U A111C | -4.73
U7G C53A A91U C101G | -4.34
U7G C73A C80A G128C | -5.2
U7G C88U G93C | -1.33
U7G C89A U116A G117A | -2.89
U7G C101A | -0.172
U7G C114U G127A | -1.17

Variant | polymerase ribozyme fitness (log ratio)
U7G G10A G19U G113A | -1.32
U7G G10A G39U G69C C101G G110C | -7.07
U7G G10C G45A G47A U59G G77A | -1.37
U7G G10U C15A C56A G63C C64A C114A A121U C123G | -6.92
U7G G10U C15A U54A C72G C104A | -2.9
U7G G10U C79G | -1.66
U7G G17U A27C C53U C56A | -4.57
U7G G39A C62G C114G | -6.04
U7G G39A C114G | -2.02
U7G G39A G58A G69U C97U | 0.0234
U7G G42A G63C U81A U109A U130C | -6.25
U7G G48C C89A | -2.97
U7G G48U C53U A95C G117A | -1.11
U7G G51C C115U | -5.78
U7G G51C U55C | -2.32
U7G G52A C104A C114G U133G | -3.61
U7G G58C U106A G128A | -0.568
U7G G63A C86G C94A G113U | -5.43
U7G G63U C88U G93C | -2.75
U7G G65A | -4.77
U7G G69A C101U | -2.81
U7G G69U G122A | 0.793
U7G G71U C115A | 1.44
U7G G93C | -0.742

Variant | polymerase ribozyme fitness (log ratio)
U7G G110U | -0.723
U7G G117C G122U | -4.49
U7G G117U | -2.24
U7G G120A | 1.99
U7G U32G C73A C98A | -4.14
U7G U33G | -5.33
U7G U54C U55G | 0.467
U7G U59G C62U A84C A90U A111U C115A | -5.26
U7G U78G C80G G135U | -5.8
U7G U92A | -2.22
U7G U96A A121C | 0.553
U7G U132C | 0.108
C8A A16C C40U C72A U92G C123U U130A | -3.93
C8A A18C C56G A95G | -2.26
C8A A24G U32A C73G A111G | -4.24
C8A A26U C115U | -5.1
C8A A27C U33G G36C G42U G110C G113C | -6.47
C8A A27G C56U C62U | -1.49
C8A A37C | 0.0805
C8A A41U C49U | -1.56
C8A A43C C86G C123U U129G | -2.96
C8A A43U | -1.01
C8A A46C C56G G127A | -3.01
C8A A50C C62A C82A C85A C88U C89G A121U | -3.62

Variant | polymerase ribozyme fitness (log ratio)
C8A A50U C89A A90G | -2.46
C8A A50U G52A | -2.23
C8A A74C G93C U116A | -2.46
C8A A74G | 0.152
C8A A74U | -0.0501
C8A A84U | 0.295
C8A A91G C98U | -1.37
C8A A108G | -1.84
C8A A121U | 2.6
C8A C11A G51U | -2.89
C8A C12A C79U C80U C114U | -4.99
C8A C12A C85U | -0.437
C8A C12A G39A | -0.403
C8A C12G C64A C123A | -6.53
C8A C12G G39C G63C U78G G117U | -2.3
C8A C12G U14C C73U G77C C101A | -1.62
C8A C12U A90U G117C | -0.863
C8A C12U C13G G69A C98U | -4.08
C8A C12U C114U U116G | -4.98
C8A C13G G17C C82U | -4
C8A C13U C31A G61U U96A C124G | -5.55
C8A C13U U55G G69A | -2.21
C8A C15G C64U C82G C89A U109A | -6.66
C8A C20U G60A C98U | -0.889

Variant | polymerase ribozyme fitness (log ratio)
C8A C22G G61U A121U | -1.38
C8A C22G G63U U129G | -3.84
C8A C22U C53G G61A U106A A118G | -4.47
C8A C22U G57C A75U C97U C102G | -6.66
C8A C28A G63U G77C C86A U112C | -6.46
C8A C28U G48C G57U G127C | -3.86
C8A C28U G52U G117C C124A G128A U133A | -6.69
C8A C31A | -5.54
C8A C40G A84U | -0.858
C8A C49A G71U C86A G122A | -0.666
C8A C53G | -0.744
C8A C53G C56A C70U C97U U112A C124U | -0.44
C8A C53U U55A G77A C89A U129C | -3.11
C8A C56A C102A A103U | -3.2
C8A C64G C72U A121G | -6.31
C8A C64U | 0.575
C8A C70U C88U | -0.306
C8A C72G U133G | 0.138
C8A C79A | -0.182
C8A C79G | -1.65
C8A C88A | 0.0973
C8A C89A G122U | -0.485
C8A C97A G120C | -3.2
C8A C101G | -1.63

Variant | polymerase ribozyme fitness (log ratio)
C8A C101U G117U | -0.423
C8A C114U U126C | -2.4
C8A C115G | -0.0701
C8A C115U | -0.595
C8A C124G | 1.76
C8A G10U C73A | -0.361
C8A G10U U14G C56A C64U U78A C86A C101U | -2.72
C8A G17A C72U U126A | -3.12
C8A G17A U54A G71U C94A | -4.99
C8A G19A A50G U54A A103C G120C | -5.02
C8A G19U G44U C97U | -3.97
C8A G25U A26C C40U G63U C88G U112C C123A C124A U130A | -7.64
C8A G35A C89U A95U U106A | -4.65
C8A G35A G61A C89U A95U U106A | -6.13
C8A G35C G71A | -5.94
C8A G36U C49G G71U | -1.2
C8A G36U G69A C88A C115U U131G | -6.31
C8A G36U U132A | -1.09
C8A G39A C79U | 0.0227
C8A G42U G44A C114U | -1.01
C8A G45C A50C G57C G93C | -2.56
C8A G47A C80A U112A | -5.77
C8A G47C | -1.8
